Consider 2 molecules from article PMC13161473 (2025).

Data set [1] deals with T1, recombinant human TRPML1 E1 domain (human).
T1 chain: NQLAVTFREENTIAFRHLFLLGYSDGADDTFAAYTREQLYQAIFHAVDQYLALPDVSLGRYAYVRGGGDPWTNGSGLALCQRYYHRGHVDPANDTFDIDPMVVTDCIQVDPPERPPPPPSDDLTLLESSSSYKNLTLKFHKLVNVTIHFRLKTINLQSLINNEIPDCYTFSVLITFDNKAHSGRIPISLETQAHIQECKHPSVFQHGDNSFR
Nature of the data set: BLI. (In general: In BLI a coated tip is dipped into the sample, and binding shifts an interference pattern.)

The target in data set [2] is CI-MPR used for biolayer interferometry (UniProt P11717 41-2491). Description: BLI.
A short description of data set [3]: immunostaining flag/lamp1, Pearson's correlation. To be noted: glycan lost; control: Siglec-15-flag (wild type).
Data set [4] is described as follows: Ca2+ release assay, Daoy cells. The settings on record: glycan lost; control: Siglec-15-flag (wild type).
Data set [5] can be described thus: plasma membrane Siglec-15 level. To be noted: glycan lost; control: Siglec-15-flag (wild type).

B1: recombinant Siglec-15-N (263 AAs) (domain or fragment)
chain: FVRTKIDTTENLLNTEVHSSPAQRWSMQVPPEVSAEAGDAAVLPCTFTHPHRHYDGPLTAIWRAGEPYAGPQVFRCAAARGSELCQTALSLHGRFRLLGNPRRNDLSLRVERLALADDRRYFCRVEFAGDVHDRYESRHGVRLHVTAAPRIVNISVLPSPAHAFRALCTAEGEPPPALAWSGPALGNSLAAVRSPREGHGHLVTAELPALTHDGRYTCTAANSLGRSEASVYLFRFHGASGAST
In the case of B1, the Kd in data set [1] is 0.499 nM; in data set [2], 1.04 nM.

B2: Siglec-15: N172Q (protein)
parent chain: MEKSIWLLACLAWVLPTGSFVRTKIDTTENLLNTEVHSSPAQRWSMQVPPEVSAEAGDAAVLPCTFTHPHRHYDGPLTAIWRAGEPYAGPQVFRCAAARGSELCQTALSLHGRFRLLGNPRRNDLSLRVERLALADDRRYFCRVEFAGDVHDRYESRHGVRLHVTAAPRIVNISVLPSPAHAFRALCTAEGEPPPALAWSGPALGNSLAAVRSPREGHGHLVTAELPALTHDGRYTCTAANSLGRSEASVYLFRFHGASGASTVALLLGALGFKALLLLGVLAARAARRRPEHLDTPDTPPRSQAQESNYENLSQMNPRSPPATMCSP
For the molecule B2, the results for the localisation_or_trafficking result in data set [3] and in data set [5] were “decreases” and “no change”, respectively. Also, in data set [4], the “other: lysosomal Ca2+ release” value is listed as “decreases”.

Usually Kd stands for a measure of binding affinity in units of concentration.
